B1: E49L (designed binder)
chain: SMEEEVEKAAKEYEKKKKEAIEKHLEKLKAKDKEAAERFLKELEEAAKLYAKDEAKTMSEEEAKRRAKKYKEKVLLSELSEEEQKEIKEAEEKLVRTILKYVEEAAK
B2: K85F (designed binder)
chain: SMEEEVEKAAKEYEKKKKEAIEKHLEKLKAKDKEAAERFLKELEEAAKEYAKDEAKTMSEEEAKRRAKKYKEKVLLSELSEEEQFEIKEAEEKLVRTILKYVEEAAK
B3: K27P (designed binder)
chain: SMEEEVEKAAKEYEKKKKEAIEKHLEPLKAKDKEAAERFLKELEEAAKEYAKDEAKTMSEEEAKRRAKKYKEKVLLSELSEEEQKEIKEAEEKLVRTILKYVEEAAK
B4: L40D (designed binder)
chain: SMEEEVEKAAKEYEKKKKEAIEKHLEKLKAKDKEAAERFDKELEEAAKEYAKDEAKTMSEEEAKRRAKKYKEKVLLSELSEEEQKEIKEAEEKLVRTILKYVEEAAK
B5: L25H (designed binder)
chain: SMEEEVEKAAKEYEKKKKEAIEKHHEKLKAKDKEAAERFLKELEEAAKEYAKDEAKTMSEEEAKRRAKKYKEKVLLSELSEEEQKEIKEAEEKLVRTILKYVEEAAK
B6: E54S (designed binder)
chain: SMEEEVEKAAKEYEKKKKEAIEKHLEKLKAKDKEAAERFLKELEEAAKEYAKDSAKTMSEEEAKRRAKKYKEKVLLSELSEEEQKEIKEAEEKLVRTILKYVEEAAK
B7: E7A (designed binder)
chain: SMEEEVAKAAKEYEKKKKEAIEKHLEKLKAKDKEAAERFLKELEEAAKEYAKDEAKTMSEEEAKRRAKKYKEKVLLSELSEEEQKEIKEAEEKLVRTILKYVEEAAK
B8: L28V (designed binder)
chain: SMEEEVEKAAKEYEKKKKEAIEKHLEKVKAKDKEAAERFLKELEEAAKEYAKDEAKTMSEEEAKRRAKKYKEKVLLSELSEEEQKEIKEAEEKLVRTILKYVEEAAK
B9: E61T (designed binder)
chain: SMEEEVEKAAKEYEKKKKEAIEKHLEKLKAKDKEAAERFLKELEEAAKEYAKDEAKTMSETEAKRRAKKYKEKVLLSELSEEEQKEIKEAEEKLVRTILKYVEEAAK
B10: Y13C (designed binder)
chain: SMEEEVEKAAKECEKKKKEAIEKHLEKLKAKDKEAAERFLKELEEAAKEYAKDEAKTMSEEEAKRRAKKYKEKVLLSELSEEEQKEIKEAEEKLVRTILKYVEEAAK
B11: E86P (designed binder)
chain: SMEEEVEKAAKEYEKKKKEAIEKHLEKLKAKDKEAAERFLKELEEAAKEYAKDEAKTMSEEEAKRRAKKYKEKVLLSELSEEEQKPIKEAEEKLVRTILKYVEEAAK
B12: K56A (designed binder)
chain: SMEEEVEKAAKEYEKKKKEAIEKHLEKLKAKDKEAAERFLKELEEAAKEYAKDEAATMSEEEAKRRAKKYKEKVLLSELSEEEQKEIKEAEEKLVRTILKYVEEAAK
B13: R96N (designed binder)
chain: SMEEEVEKAAKEYEKKKKEAIEKHLEKLKAKDKEAAERFLKELEEAAKEYAKDEAKTMSEEEAKRRAKKYKEKVLLSELSEEEQKEIKEAEEKLVNTILKYVEEAAK
B14: E103I (designed binder)
chain: SMEEEVEKAAKEYEKKKKEAIEKHLEKLKAKDKEAAERFLKELEEAAKEYAKDEAKTMSEEEAKRRAKKYKEKVLLSELSEEEQKEIKEAEEKLVRTILKYVIEAAK
B15: E37S (designed binder)
chain: SMEEEVEKAAKEYEKKKKEAIEKHLEKLKAKDKEAASRFLKELEEAAKEYAKDEAKTMSEEEAKRRAKKYKEKVLLSELSEEEQKEIKEAEEKLVRTILKYVEEAAK
B16: H24L (designed binder)
chain: SMEEEVEKAAKEYEKKKKEAIEKLLEKLKAKDKEAAERFLKELEEAAKEYAKDEAKTMSEEEAKRRAKKYKEKVLLSELSEEEQKEIKEAEEKLVRTILKYVEEAAK
B17: L40N (designed binder)
chain: SMEEEVEKAAKEYEKKKKEAIEKHLEKLKAKDKEAAERFNKELEEAAKEYAKDEAKTMSEEEAKRRAKKYKEKVLLSELSEEEQKEIKEAEEKLVRTILKYVEEAAK
B18: A106I (designed binder)
chain: SMEEEVEKAAKEYEKKKKEAIEKHLEKLKAKDKEAAERFLKELEEAAKEYAKDEAKTMSEEEAKRRAKKYKEKVLLSELSEEEQKEIKEAEEKLVRTILKYVEEAIK
B19: K64L (designed binder)
chain: SMEEEVEKAAKEYEKKKKEAIEKHLEKLKAKDKEAAERFLKELEEAAKEYAKDEAKTMSEEEALRRAKKYKEKVLLSELSEEEQKEIKEAEEKLVRTILKYVEEAAK
B20: K48E (designed binder)
chain: SMEEEVEKAAKEYEKKKKEAIEKHLEKLKAKDKEAAERFLKELEEAAEEYAKDEAKTMSEEEAKRRAKKYKEKVLLSELSEEEQKEIKEAEEKLVRTILKYVEEAAK
B21: E83A (designed binder)
chain: SMEEEVEKAAKEYEKKKKEAIEKHLEKLKAKDKEAAERFLKELEEAAKEYAKDEAKTMSEEEAKRRAKKYKEKVLLSELSEEAQKEIKEAEEKLVRTILKYVEEAAK
B22: K48F (designed binder)
chain: SMEEEVEKAAKEYEKKKKEAIEKHLEKLKAKDKEAAERFLKELEEAAFEYAKDEAKTMSEEEAKRRAKKYKEKVLLSELSEEEQKEIKEAEEKLVRTILKYVEEAAK
B23: K52V (designed binder)
chain: SMEEEVEKAAKEYEKKKKEAIEKHLEKLKAKDKEAAERFLKELEEAAKEYAVDEAKTMSEEEAKRRAKKYKEKVLLSELSEEEQKEIKEAEEKLVRTILKYVEEAAK
B24: I87L (designed binder)
chain: SMEEEVEKAAKEYEKKKKEAIEKHLEKLKAKDKEAAERFLKELEEAAKEYAKDEAKTMSEEEAKRRAKKYKEKVLLSELSEEEQKELKEAEEKLVRTILKYVEEAAK
B25: K23T (designed binder)
chain: SMEEEVEKAAKEYEKKKKEAIETHLEKLKAKDKEAAERFLKELEEAAKEYAKDEAKTMSEEEAKRRAKKYKEKVLLSELSEEEQKEIKEAEEKLVRTILKYVEEAAK
B26: E103Y (designed binder)
chain: SMEEEVEKAAKEYEKKKKEAIEKHLEKLKAKDKEAAERFLKELEEAAKEYAKDEAKTMSEEEAKRRAKKYKEKVLLSELSEEEQKEIKEAEEKLVRTILKYVYEAAK
B27: E3K (designed binder)
chain: SMKEEVEKAAKEYEKKKKEAIEKHLEKLKAKDKEAAERFLKELEEAAKEYAKDEAKTMSEEEAKRRAKKYKEKVLLSELSEEEQKEIKEAEEKLVRTILKYVEEAAK
B28: S59I (designed binder)
chain: SMEEEVEKAAKEYEKKKKEAIEKHLEKLKAKDKEAAERFLKELEEAAKEYAKDEAKTMIEEEAKRRAKKYKEKVLLSELSEEEQKEIKEAEEKLVRTILKYVEEAAK
B29: E26L (designed binder)
chain: SMEEEVEKAAKEYEKKKKEAIEKHLLKLKAKDKEAAERFLKELEEAAKEYAKDEAKTMSEEEAKRRAKKYKEKVLLSELSEEEQKEIKEAEEKLVRTILKYVEEAAK
B30: K16E (designed binder)
chain: SMEEEVEKAAKEYEKEKKEAIEKHLEKLKAKDKEAAERFLKELEEAAKEYAKDEAKTMSEEEAKRRAKKYKEKVLLSELSEEEQKEIKEAEEKLVRTILKYVEEAAK
B31: A10I (designed binder)
chain: SMEEEVEKAIKEYEKKKKEAIEKHLEKLKAKDKEAAERFLKELEEAAKEYAKDEAKTMSEEEAKRRAKKYKEKVLLSELSEEEQKEIKEAEEKLVRTILKYVEEAAK
B32: F39C (designed binder)
chain: SMEEEVEKAAKEYEKKKKEAIEKHLEKLKAKDKEAAERCLKELEEAAKEYAKDEAKTMSEEEAKRRAKKYKEKVLLSELSEEEQKEIKEAEEKLVRTILKYVEEAAK
B33: E92L (designed binder)
chain: SMEEEVEKAAKEYEKKKKEAIEKHLEKLKAKDKEAAERFLKELEEAAKEYAKDEAKTMSEEEAKRRAKKYKEKVLLSELSEEEQKEIKEAELKLVRTILKYVEEAAK

Experimental findings from article PMC12416549 (2024) are described below.

The target in the assay is T1, TNFR1 (Homo sapiens, UniProt P19438).
T1 chain: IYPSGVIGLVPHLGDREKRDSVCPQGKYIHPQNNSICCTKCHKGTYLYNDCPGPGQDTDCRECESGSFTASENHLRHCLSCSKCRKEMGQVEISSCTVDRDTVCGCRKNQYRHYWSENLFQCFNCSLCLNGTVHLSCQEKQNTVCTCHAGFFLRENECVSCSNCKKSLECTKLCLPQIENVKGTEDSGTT
Put plainly: yeast display SC50.
For the molecule B1, the “apparent Kd (screen)” value stood at 10.4 nM. With B2, the “apparent Kd (screen)” value was determined as 0.539 nM. B3: the “apparent Kd (screen)” value stood at 2.73 nM. B4: the “apparent Kd (screen)” value turned out to be 1.4 nM. Then B5, with 0.49 nM. For the molecule B6, the “apparent Kd (screen)” value was 6.43 nM. Turning to B7, the “apparent Kd (screen)” value is 3.63 nM.

As to B8, the “apparent Kd (screen)” value stood at 0.79 nM. Regarding B9, the “apparent Kd (screen)” value came to 0.956 nM. With B10, the “apparent Kd (screen)” value was 1.27 nM. B11: the “apparent Kd (screen)” value is 12.5 nM.

Take B12: the “apparent Kd (screen)” value worked out at 3 nM.

B13: the “apparent Kd (screen)” value came to 3 nM. As to B14, the “apparent Kd (screen)” value came to 0.539 nM. Then B15, with 0.49 nM; and B16, with 0.539 nM; and B17, with 0.539 nM.

Take B18: the “apparent Kd (screen)” value is 5.84 nM. With B19, the “apparent Kd (screen)” value stood at 0.446 nM. Next, B20: 0.446 nM; B21: 0.405 nM. Consider B22, for which the “apparent Kd (screen)” value turned out to be 0.593 nM. In the case of B23, the “apparent Kd (screen)” value came to 0.956 nM. For B24, the “apparent Kd (screen)” value worked out at 2.25 nM. In the case of B25, the “apparent Kd (screen)” value is 0.446 nM. Take B26: the “apparent Kd (screen)” value turned out to be 1.86 nM. Next, B27: 0.653 nM; B28: 2.73 nM.

Regarding B29, the “apparent Kd (screen)” value turned out to be 0.869 nM. Next, B30: 1.54 nM. For the molecule B31, the “apparent Kd (screen)” value was 0.446 nM. For the molecule B32, the “apparent Kd (screen)” value turned out to be 5.31 nM. Take B33: the “apparent Kd (screen)” value is 10.4 nM.
